The supplement of paper PMC9170038

Tested on: MS2 coat protein
Assay: apparent KD of MS2 coat protein; designed switch direction (-1 OFF switch, 1 ON switch): -1; higher = weaker reporter binding
Procedure, shortened: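 Designed RNA switches with common flanks were transcribed on Illumina chips by stalled E. coli RNA polymerase and titrated with SNAP-549-labelled MS2 coat protein, from 0.7 or 1.5 nM doubling to 3 µM, in Tris-HCl pH 7.5 buffer with KCl, MgCl2, BSA, DTT, tRNA and Tween-20. Steps lasted 0.8–1.5 h (lowest) to 10–20 min (highest). Titrations ran without input, with 200 uM small-molecule ligand, or with an oligonucleotide input. Normalised cluster fluorescence was curve-fitted, and apparent KD is the per-design median over clusters.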

[1] = Eterna round: R95, input ligand: microRNA oligo, concentration not stated
[2] = input ligand: microRNA oligo, concentration not stated
[3] = Eterna round: R95, input ligand: FMN 200 uM
[4] = Eterna round: R95, input ligand: none

| Sequence | apparent KD of MS2 coat protein [1] [nM] | apparent KD of MS2 coat protein (input ligand: FMN 200 uM) [nM] | apparent KD of MS2 coat protein (input ligand: none) [nM] | apparent KD of MS2 coat protein [2] [nM] | apparent KD of MS2 coat protein [3] [nM] | apparent KD of MS2 coat protein [4] [nM] |
| --- | --- | --- | --- | --- | --- | --- |
| GCAUCCAAAGUGAGGAUAUACCUCUGGAUACAGAGGUAGAAGGCACAUGAGGAUCACCCAUGUUCCUAGGAUGC [Fiskers BMX 4 - 38] (puzzle: Brourd's mod of Exclusion 4) | 13.3 |  |  |  |  |  |
| GCAUCCAAAGUGAGGAUAUACCUCUGGAUACAUAGGUAGAAGGCACAUGAGGAUCACCCAUGUUCCUAGGAUGC [Fiskers BMX 4 - 32] (puzzle: Brourd's mod of Exclusion 4) | 25 |  |  |  |  |  |
| GCAUCCAUAGUGAGGAUAUACCUCUGGAUACAUAGGUAGAAGGCACAUGAGGAUCACCCAUGUUCCUAGGAUGC [Fiskers BMX 4 - 33] (puzzle: Brourd's mod of Exclusion 4) | 16.9 |  |  |  |  |  |
| GCAUUACAUGAGGAUCACCCAUGUGAGGAUAUUAGGGUCGCAAGCACGUCUAGCAGACUGAGAAGGCACGGGUG [Eternabot (L1) Solution 45] (Eterna round: R97, puzzle: Exclusion 1) |  | 139 | 192 |  |  |  |
| GCAUUGAGUGUGAGGAUAUGCUGGUCCUUGGAUCAGCAGAAGGCACAUGAGGAUCACCCAUGUGAAUACAAUGC [JL bmx4 3.13] (puzzle: Brourd's mod of Exclusion 4) | 18.9 |  |  |  |  |  |
| GCAUUUGAGCAGGAUAUAGCCUGAACAUAAUGGUUAGAAGGGCUCACAUGAGGAUCACCCAUGUGGUGUCCUAA [Rateria] (puzzle: Exclusion 6) | 11.6 |  |  |  |  |  |
| GCCGGAGCAGGAUAUCUAAUAUAUCACAUGAGGAUCACCCAUGUCCAGCGAAAGCUGGAGGGAGAAGGGCUCUGGC [Fiskers Ex 5 - 22] (Eterna round: R96, puzzle: Exclusion 5) |  | 47 | 143 | 99.1 |  |  |
| GCCGGAGCAGGAUAUCUAAUAUAUCACAUGAGGAUCACCCAUGUCCAGCGAAAGCUGGAGGGAGAAGGGCUCUGGC [Fiskers Ex 5 - 22] (puzzle: Exclusion 5) | 133 |  |  |  | 59.7 | 132 |
| GCCGGAUUUGUGAGGAUAUACCUAUGGAUACAUAGGUAGAAGGCACAUGAGGAUCACCCAUGUACCUCUCCGGC [JL-BMX4-4.19 Eli mod] (Eterna round: R97, puzzle: Brourd's mod of Exclusion 4) |  | 91.9 | 19.5 |  |  |  |
| GCCGGCUGAGGAUAUACAUGAGGAUCACCCAUGUGCUUCAGCCGGGAGACCGGCAUUGGUAGAAGGCAGCCGGC [Mod of lroppy 21 - Jieux - Exclusion 3] (Eterna round: R97, puzzle: Exclusion 3) |  | 14.5 | 14.7 |  |  |  |
| GCCGGUCAUGUAGGAUAUGGCCGGCGGUGCCGGCCAGAAGGACAUGAGGAUCACCCAUGUGCCGGCCUUUGGCCGGCACCCGGC (Eterna round: R96, puzzle: Exclusion NG 1) |  | 10.3 | 17.2 | 8.76 |  |  |
| GCCGGUGAUCUAACCCGUAACAUGAGGAUCACCCAUGUAAGCUCGGGUUCUACAGAACCCGAUAUUAGCUCGUCAGU [Eternabot (Original) Solution 3] (Eterna round: R97, puzzle: Sensor, turn-off variant 1) |  | 599 | 894 |  |  |  |
| GCCGGUGUUGCGGAUAAGCUUUUCUGCUCGUUUUAUCGCACAUGAGGAUCACCCAUGUCAUCCGUCAGCAUGCAAAC [Aredardi] (puzzle: Sensor v3, turn-off variant 2) | 40.7 |  |  |  | 26 | 25.6 |
| GCCGUGUCAGGAUAUCGGCGGCUAUAAGUGUACGUACCUUUCGAGAAGGGACAUGAGGAUCACCCAUGUAAAUC [Eternabot (L1) Solution 25] (Eterna round: R97, puzzle: Exclusion 4) |  | 29.9 | 28.9 |  |  |  |
| GCCUAUGUGGAGGAUAUCGACUUCGAAAGAAGUCGAGAAGGCCACACAUGAGGAUCACCCAUGUGGUGCCAGGC [Omei Ex6 H13] (Eterna round: R97, puzzle: Exclusion 6) |  | 336 | 293 |  |  |  |
| GCCUCACAUGAGGAUCACCCAUGUCAGGAUAUACCCAUCCAGCGAAAUAAACGCUGUAGUAGAAGGGACAUGCA [Anlaat] (Eterna round: R97, puzzle: Exclusion 1) |  | 40.3 | 15.3 |  |  |  |
| GCCUCACUUGAGGAUCACCCAAGUCAGGAUAUUCACUGAACUGCGUAGCAAUUCGGCCGAAGAAGGGAUUCGGG [Veala] (Eterna round: R97, puzzle: Exclusion 1) |  | 75.2 | 107 |  |  |  |
| GCCUGUGCCCUAGGAUAUCGCCCAGCCAAUGGAUGAGAAGGAGGCGGGUGAAACAUGAGGAUCACCCAUGUAAACGCACAAGCA [Inusri] (Eterna round: R96, puzzle: Exclusion NG 1) |  | 102 | 22.7 | 14.5 |  |  |
| GCCUUAUCUGUCAGGAUAUACAAUAAAAUAAUUAAGUAGAAGGGACAUGAGGAUCACCCAUGUACAUUACAUUG [alecazam26] (Eterna round: R97, puzzle: Brourd's mod of Exclusion 4) |  | 67.4 | 17.9 |  |  |  |
| GCCUUGGGAGUCAGGAUAUACAAUAAAAUAAUUAAGUAGAAGGGACAUGAGGAUCACCCAUGUACAUUACAUUG [alecazam30] (Eterna round: R97, puzzle: Brourd's mod of Exclusion 4) |  | 48 | 13.3 |  |  |  |
| GCGAAAGAAAACAGGUGAAACAUGAGGAUCACCCAUGUCCUCAUUUGCUCGUCUUAUAAGCUAUGCGAAAGCAUAGC [Mat - Sensor v3 - turn-off var 1 - Eli Mod - D52] (puzzle: Sensor v3, turn-off variant 1) | 391 |  |  |  | 173 | 218 |
| GCGAAAGCAAGCAAGUGAAACAUGAGGAUCACCCAUGUCCUCAUUUGCUCGUCUUAUAAAAGCUAUCGAAAGAUAGC [Sensor 3, v1 - 1] (puzzle: Sensor v3, turn-off variant 1) | 172 |  |  |  | 11.6 | 13.5 |
| GCGAAAGCAAGCAAGUGAAACAUGAGGAUCACCCAUGUCCUCAUUUGCUCGUCUUGUAAGCUAUGCGAAAGCAUAGC [Sensor 3, v1 - 5] (puzzle: Sensor v3, turn-off variant 1) | 53.3 |  |  |  | 12.1 | 11.9 |
| GCGCAAACGCCAAAAGGCGAAACAACAUGAGGAUCACCCAUGUAGGAUAUCGAUUGCUUUGCAGUCGAGAAGGACAUAAUGCGC [JL ENG3 3.80 Mod 3] (Eterna round: R96, puzzle: Exclusion NG 3) |  |  |  | 11.9 |  |  |
| GCGCAAAGCUAGGAUAUCCAGGGAUCUUCCCGCGGAGAAGGAGCCACAUGAGGAUCACCCAUGUGGUGAUCCUG [eternacac ex6r4 sub7] (Eterna round: R97, puzzle: Exclusion 6) |  | 14.9 | 15.4 |  |  |  |
| GCGCACCUACCAAAAGGUAGGCCGACAUGAGGAUCACCCAUGUAGGAUAUCGAUUGCUUUGCAGUCGAGAAGGACAUGAUGCGC [JL ENG3 3.80 Mod 9] (Eterna round: R96, puzzle: Exclusion NG 3) |  | 35.8 | 19 | 11.6 |  |  |
